We go through six molecules from patent US20250262210A1 (TRUSTEES OF COLUMBIA UNIVERSITY IN THE CITY OF NEW YORK, published 2025).

Substitutions are numbered along the chain they refer to.

Sequences and labels used below:
T1: LZTR1 R810W-FLAG (human, UniProt Q8N653 1-840)
T1 construct: Stably expressed in U87 cells by lentivirus; also called LZTR1-FLAG-R810W; LZTR1 RW; not shown: FLAG tag
T1 sequence (looked up): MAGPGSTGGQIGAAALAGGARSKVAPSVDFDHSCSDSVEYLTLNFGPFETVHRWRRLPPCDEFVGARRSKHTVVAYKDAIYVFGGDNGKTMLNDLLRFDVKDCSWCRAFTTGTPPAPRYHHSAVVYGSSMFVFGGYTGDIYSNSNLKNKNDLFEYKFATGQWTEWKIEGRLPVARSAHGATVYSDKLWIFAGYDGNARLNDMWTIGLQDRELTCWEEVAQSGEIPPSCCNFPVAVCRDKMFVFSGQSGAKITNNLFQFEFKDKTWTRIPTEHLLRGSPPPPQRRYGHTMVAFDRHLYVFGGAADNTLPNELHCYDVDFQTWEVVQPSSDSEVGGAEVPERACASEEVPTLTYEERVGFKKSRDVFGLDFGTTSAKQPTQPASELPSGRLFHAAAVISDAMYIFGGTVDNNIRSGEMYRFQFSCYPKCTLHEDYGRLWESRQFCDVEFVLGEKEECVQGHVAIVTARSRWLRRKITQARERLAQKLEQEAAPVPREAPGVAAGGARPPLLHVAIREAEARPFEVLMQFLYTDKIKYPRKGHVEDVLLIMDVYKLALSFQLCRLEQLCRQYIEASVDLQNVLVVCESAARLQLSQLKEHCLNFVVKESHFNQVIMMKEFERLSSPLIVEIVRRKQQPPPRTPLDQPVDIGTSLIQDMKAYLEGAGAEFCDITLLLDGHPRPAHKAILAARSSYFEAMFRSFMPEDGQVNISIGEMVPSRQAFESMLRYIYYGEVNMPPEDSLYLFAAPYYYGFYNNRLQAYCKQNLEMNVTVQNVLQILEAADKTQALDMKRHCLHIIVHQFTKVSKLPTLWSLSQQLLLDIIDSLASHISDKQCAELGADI

T2: LZTR1-FLAG (human, UniProt Q8N653 1-840)
T2 construct: Expressed in HEK 293T, HeLa or U87 cells; used as cell lysate; also called LZTR1 wild type-FLAG; LZTR1 WT; not shown: FLAG tag at the C-terminus
T2 sequence (looked up): T1 sequence (looked up) with W810R

B1: MCMBP (other, human, UniProt Q9BTE3 1-642, looked up)
chain: MPCGEDWLSHPLGIVQGFFAQNGVNPDWEKKVIEYFKEKLKENNAPKWVPSLNEVPLHYLKPNSFVKFRCMIQDMFDPEFYMGVYETVNQNTKAHVLHFGKYRDVAECGPQQELDLNSPRNTTLERQTFYCVPVPGESTWVKEAYVNANQARVSPSTSYTPSRHKRSYEDDDDMDLQPNKQKDQHAGARQAGSVGGLQWCGEPKRLETEASTGQQLNSLNLSSPFDLNFPLPGEKGPACLVKVYEDWDCFKVNDILELYGILSVDPVLSILNNDERDASALLDPMECTDTAEEQRVHSPPASLVPRIHVILAQKLQHINPLLPACLNKEESKTCKFVSSFMSELSPVRAELLGFLTHALLGDSLAAEYLILHLISTVYTRRDVLPLGKFTVNLSGCPRNSTFTEHLYRIIQHLVPASFRLQMTIENMNHLKFIPHKDYTANRLVSGLLQLPSNTSLVIDETLLEQGQLDTPGVHNVTALSNLITWQKVDYDFSYHQMEFPCNINVFITSEGRSLLPADCQIHLQPQLIPPNMEEYMNSLLSAVLPSVLNKFRIYLTLLRFLEYSISDEITKAVEDDFVEMRKNDPQSITADDLHQLLVVARCLSLSAGQTTLSRERWLRAKQLESLRRTRLQQQKCVNGNEL
B2: MELK (other, human, UniProt Q14680 1-651, looked up)
chain: MKDYDELLKYYELHETIGTGGFAKVKLACHILTGEMVAIKIMDKNTLGSDLPRIKTEIEALKNLRHQHICQLYHVLETANKIFMVLEYCPGGELFDYIISQDRLSEEETRVVFRQIVSAVAYVHSQGYAHRDLKPENLLFDEYHKLKLIDFGLCAKPKGNKDYHLQTCCGSLAYAAPELIQGKSYLGSEADVWSMGILLYVLMCGFLPFDDDNVMALYKKIMRGKYDVPKWLSPSSILLLQQMLQVDPKKRISMKNLLNHPWIMQDYNYPVEWQSKNPFIHLDDDCVTELSVHHRNNRQTMEDLISLWQYDHLTATYLLLLAKKARGKPVRLRLSSFSCGQASATPFTDIKSNNWSLEDVTASDKNYVAGLIDYDWCEDDLSTGAATPRTSQFTKYWTESNGVESKSLTPALCRTPANKLKNKENVYTPKSAVKNEEYFMFPEPKTPVNKNQHKREILTTPNRYTTPSKARNQCLKETPIKIPVNSTGTDKLMTGVISPERRCRSVELDLNQAHMEETPKRKGAKVFGSLERGLDKVITVLTRSKRKGSARDGPRRLKLHYNVTTTRLVNPDQLLNEIMSILPKKHVDFVQKGYTLKCQTQSDFGKVTMQFELEVCQLQKPDVVGIRRQRLKGDAWVYKRLVEDILSSCKV
B3: NGLY1 (other, human, UniProt Q96IV0 2-654, looked up)
chain: AAAALGSSSGSASPAVAELCQNTPETFLEASKLLLTYADNILRNPNDEKYRSIRIGNTAFSTRLLPVRGAVECLFEMGFEEGETHLIFPKKASVEQLQKIRDLIAIERSSRLDGSNKSHKVKSSQQPAASTQLPTTPSSNPSGLNQHTRNRQGQSSDPPSASTVAADSAILEVLQSNIQHVLVYENPALQEKALACIPVQELKRKSQEKLSRARKLDKGINISDEDFLLLELLHWFKEEFFHWVNNVLCSKCGGQTRSRDRSLLPSDDELKWGAKEVEDHYCDACQFSNRFPRYNNPEKLLETRCGRCGEWANCFTLCCRAVGFEARYVWDYTDHVWTEVYSPSQQRWLHCDACEDVCDKPLLYEIGWGKKLSYVIAFSKDEVVDVTWRYSCKHEEVIARRTKVKEALLRDTINGLNKQRQLFLSENRRKELLQRIIVELVEFISPKTPKPGELGGRISGSVAWRVARGEMGLQRKETLFIPCENEKISKQLHLCYNIVKDRYVRVSNNNQTISGWENGVWKMESIFRKVETDWHMVYLARKEGSSFAYISWKFECGSVGLKVDSISIRTSSQTFQTGTVEWKLRSDTAQVELTGDNSLHSYADFSGATEVILEAELSRGDGDVAWQHTQLFRQSLNDHEENCLEIIIKFSDL
B4: PNPLA2 (other, human, UniProt Q96AD5 1-504, looked up)
chain: MFPREKTWNISFAGCGFLGVYYVGVASCLREHAPFLVANATHIYGASAGALTATALVTGVCLGEAGAKFIEVSKEARKRFLGPLHPSFNLVKIIRSFLLKVLPADSHEHASGRLGISLTRVSDGENVIISHFNSKDELIQANVCSGFIPVYCGLIPPSLQGVRYVDGGISDNLPLYELKNTITVSPFSGESDICPQDSSTNIHELRVTNTSIQFNLRNLYRLSKALFPPEPLVLREMCKQGYRDGLRFLQRNGLLNRPNPLLALPPARPHGPEDKDQAVESAQAEDYSQLPGEDHILEHLPARLNEALLEACVEPTDLLTTLSNMLPVRLATAMMVPYTLPLESALSFTIRLLEWLPDVPEDIRWMKEQTGSICQYLVMRAKRKLGRHLPSRLPEQVELRRVQSLPSVPLSCAAYREALPGWMRNNLSLGDALAKWEECQRQLLLGLFCTNVAFPPEALRMRAPADPAPAPADPASPQHQLAGPAPLLSTPAPEARPVIGALGL
B5: PAFAH1B1 (other, human, UniProt P43034 1-410, looked up)
chain: MVLSQRQRDELNRAIADYLRSNGYEEAYSVFKKEAELDVNEELDKKYAGLLEKKWTSVIRLQKKVMELESKLNEAKEEFTSGGPLGQKRDPKEWIPRPPEKYALSGHRSPVTRVIFHPVFSVMVSASEDATIKVWDYETGDFERTLKGHTDSVQDISFDHSGKLLASCSADMTIKLWDFQGFECIRTMHGHDHNVSSVAIMPNGDHIVSASRDKTIKMWEVQTGYCVKTFTGHREWVRMVRPNQDGTLIASCSNDQTVRVWVVATKECKAELREHEHVVECISWAPESSYSSISEATGSETKKSGKPGPFLLSGSRDKTIKMWDVSTGMCLMTLVGHDNWVRGVLFHSGGKFILSCADDKTLRVWDYKNKRCMKTLNAHEHFVTSLDFHKTAPYVVTGSVDQTVKVWECR
B6: NDC80 (other, human, UniProt O14777 1-642, looked up)
chain: MKRSSVSSGGAGRLSMQELRSQDVNKQGLYTPQTKEKPTFGKLSINKPTSERKVSLFGKRTSGHGSRNSQLGIFSSSEKIKDPRPLNDKAFIQQCIRQLCEFLTENGYAHNVSMKSLQAPSVKDFLKIFTFLYGFLCPSYELPDTKFEEEVPRIFKDLGYPFALSKSSMYTVGAPHTWPHIVAALVWLIDCIKIHTAMKESSPLFDDGQPWGEETEDGIMHNKLFLDYTIKCYESFMSGADSFDEMNAELQSKLKDLFNVDAFKLESLEAKNRALNEQIARLEQEREKEPNRLESLRKLKASLQGDVQKYQAYMSNLESHSAILDQKLNGLNEEIARVELECETIKQENTRLQNIIDNQKYSVADIERINHERNELQQTINKLTKDLEAEQQKLWNEELKYARGKEAIETQLAEYHKLARKLKLIPKGAENSKGYDFEIKFNPEAGANCLVKYRAQVYVPLKELLNETEEEINKALNKKMGLEDTLEQLNAMITESKRSVRTLKEEVQKLDDLYQQKIKEAEEEDEKCASELESLEKHKHLLESTVNQGLSEAMNELDAVQREYQLVVQTTTEERRKVGNNLQRLLEMVATHVGSVEKHLEEQIAKVDREYEECMSEDLSENIKEIRDKYEKKATLIKSSEE

The first assay addresses T1, LZTR1 R810W-FLAG. The experiment in a line: IP/MS, LZTR1 R810W-FLAG, U87. A digest of the protocol:
(§1)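 Gel slices were reduced with 5 mM DTT, alkylated with 11 mM IAA and digested overnight at 37° C. with trypsin. Peptides were analysed on an Orbitrap Fusion Tribrid by LC-MS/MS.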
For the molecule B1, the binding result is “binds”.

Turning to B2, the binding result is “binds”.

Regarding B3, the binding result was “binds”.

B4: the binding result is “binds”.

In the case of B5, the binding result is “binds”.

As to B6, the binding result was “binds”.

Another assay deals with T2, LZTR1-FLAG. Put plainly: IP/MS, LZTR1 wild type-FLAG, U87. A digest of the protocol: as §1
Turning to B1, the binding result is “binds”.

As for B2, the binding result was “binds”.

Turning to B3, the binding result is given as “binds”.

In the case of B4, the binding result is listed as “binds”.

As for B5, the binding result was “binds”.

For B6, the binding result was “binds”.
